Laboratory results: patent US20220112270

Assays:
[1] = biological target: another recombinant AAT (R&D systems) (UniProt P01009)
[2] = system: recombinant human alpha 1-antitrypsin (AAT) derived from recombinant CHO cells
[3] = biological target: plasma-derived human alpha 1-antitrypsin (AAT) (UniProt P01009)
[4] = system: mouse AAT in mouse plasma

**Q.** For trypsin, which “trypsin activity (fluorogenic peptide substrate)” value (“trypsin activity” for short) [1] is on record?
**A.** drastically reduced trypsin activity in a similar manner as ... another recombinant AAT (R&D systems)

**Q.** And the “trypsin activity” value [2]?
**A.** At a concentration of 5 ng/ml, the recombinant AAT described and obtained by the methods presented herein (ExcellGene) drastically reduced trypsin activity

**Q.** And the “trypsin activity” value [3]?
**A.** drastically reduced trypsin activity in a similar manner as a plasma-derived AAT (Prolastin)

**Q.** And the “trypsin activity” value [4]?
**A.** drastically reduced trypsin activity in a similar manner as ... mouse plasma diluted from a sample that contained about 1.2 g/L mouse AAT
